Assay results from US20210269480A1 (published 2021).
*1 amine or outer side, *2 acyl side, *3 side chain or, on linkers, in order; H or OH if unused. Bridges are numbered along the chain shown (N, C = ends). Where no end group is shown, it is not given here. [ ]: non-standard residue; d: D form. 124TriAz = 3-(1,2,4-triazol-1-yl)-alanine, O=C([C@H](Cn1cncn1)N[*:1])[*:2]; TATA = O=C(CC[*:1])N1CN(C(=O)CC[*:2])CN(C(=O)CC[*:3])C1; HGln = homoglutamine, NC(=O)CCC[C@H](N[*:1])C(=O)[*:2]; Trp(5-F) = N[C@@H](Cc1c[nH]c2ccc(F)cc12)C(=O)O; Ala(4-thiazolyl) = N[C@@H](Cc1cscn1)C(=O)O; 1Nal = N[C@@H](Cc1cccc2ccccc12)C(=O)O; 2Nal = N[C@@H](Cc1ccc2ccccc2c1)C(=O)O; Dopa = N[C@@H](Cc1ccc(O)c(O)c1)C(=O)O; Gly(cPent) = N[C@H](C(=O)O)C1CCCC1; Ser(ΨH,HPro) = O=C(O)[C@@H]1COCN1; Ala(cPr) = N[C@@H](CC1CC1)C(=O)O; Hyp = O=C(O)[C@@H]1C[C@@H](O)CN1; NMeT = CN[C@H](C(=O)O)[C@@H](C)O; hArg = N=C(N)NCCCC[C@H](N)C(=O)O; 2Thi = N[C@@H](Cc1cccs1)C(=O)O; NMeC = CN[C@@H](CS)C(=O)O; hSer = N[C@@H](CCO)C(=O)O; Aib = CC(C)(N)C(=O)O; βAla = NCCC(=O)O; Sar = CNCC(=O)O

T1: human Nectin-4 (human, UniProt Q96NY8 32-349)
T1 construct: a Gly32-Ser349 FLAG construct is described only under the SPR assay; also called PVRL4
T1 sequence (looked up): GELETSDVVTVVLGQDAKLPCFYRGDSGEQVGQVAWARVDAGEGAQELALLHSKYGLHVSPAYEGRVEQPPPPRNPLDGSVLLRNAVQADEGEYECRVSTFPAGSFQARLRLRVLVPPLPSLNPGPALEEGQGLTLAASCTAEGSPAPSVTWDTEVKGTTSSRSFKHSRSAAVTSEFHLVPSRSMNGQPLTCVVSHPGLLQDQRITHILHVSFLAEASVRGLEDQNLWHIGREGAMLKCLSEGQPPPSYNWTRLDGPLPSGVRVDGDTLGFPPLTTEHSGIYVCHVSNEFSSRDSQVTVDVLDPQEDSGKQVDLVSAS


These binders were tested against T1, human Nectin-4 (assay: FP competition, tracer SEQ ID NO 217).
Procedure: Peptides were diluted to an appropriate concentration in assay buffer as described in the direct binding assay with a maximum of 5% DMSO, then serially diluted 1 in 2. […] Measurements were conducted as for the direct binding assay, however the gain was determined prior to the first measurement. Data analysis was in Systat Sigmaplot version 12.0 where the mP values were fit to a user defined cubic equation to generate a Ki value: […]

Row | Binder | Ki [nM]
1 | Ac-CAPLSDYWCNRIC (linker 1-9-13 via TATA) [BCY8044] | 170
2 | Ac-CPF[dD]C[hArg]NWS[NMeT]PIWC (linker 1-5-14 via TATA) [BCY7979] | 191
3 | DDWCAPLDDYWCGRICA (linker 4-12-16 via TATA, also called 80-10-11-T01) [BCY433] | 69.4
4 | Ac-CPF[dD]CM[hArg]NWS[Dopa]PIWC (linker 1-5-15 via TATA) [BCY7887] | 21.4
5 | Ac-CPF[dD]CM[hArg]NWS[124TriAz]PIWC (linker 1-5-15 via TATA) [BCY7883] | 189
6 | Ac-CP[Dopa][dD]CM[hArg]NWSTPIWC (linker 1-5-15 via TATA) [BCY7886] | 15
7 | Ac-C[Aib]F[dD]CM[hArg]NWSTPIWC (linker 1-5-15 via TATA) [BCY8041] | 39.1
8 | Ac-C[Ser(ΨH,HPro)]F[dD]CM[hArg]NWSTPIWC (linker 1-5-15 via TATA) [BCY7876] | 59.2
9 | Ac-QKWCAPLSDY[1Nal]CNRIC (linker 4-12-16 via TATA) [BCY7998] | 135
10 | DDACPFGCMETWSWPIWCA (linker 4-8-18 via TATA) [BCY3386] | 80.2
11 | DTACPFGCMRGWSWPIWCA (linker 4-8-18 via TATA) [BCY3388] | 129
12 | Ac-CPF[dD]C[HGln][hArg]NWSTPIWC (linker 1-5-15 via TATA) [BCY7914] | 62
13 | Ac-QKWCAPLSDYWC[dD]RIC (linker 4-12-16 via TATA) [BCY8000] | 60
14 | {Ac-βAla}-[Sar][Sar][Sar][Sar][Sar]CP[1Nal][dD]CM[hArg]DWSTP[Hyp]WC (linker 6-10-20 via TATA) [BCY8122] | 3
15 | Ac-CPF[dE]CM[hArg]NWSTPIWC (linker 1-5-15 via TATA) [BCY7903] | 41
16 | Ac-DDDCPF[dD]CM[hArg]NWSTPIWC (linker 4-8-18 via TATA) [BCY8028] | 61.9
17 | ACAPLDDYWCGRICA (linker 2-10-14 via TATA) [BCY432] | 1100
18 | SDNCPFGCMKDWSWPIWCA (linker 4-8-18 via TATA) [BCY3387] | 234
19 | Ac-QK[2Nal]CAPLSDYWCNRIC (linker 4-12-16 via TATA) [BCY7997] | 22
20 | Ac-CPF[dD]CM[hArg]NWST[Ser(ΨH,HPro)]IWC (linker 1-5-15 via TATA) [BCY7884] | 223
21 | Ac-CPF[dA]CMKNWSWPIWC (linker 1-5-15 via TATA) [BCY7538] | 8.5

Further binders by falling Ki, results first:

Row | Ki [nM] | Binder
22 | 21 | Ac-QK[1Nal]CAPLSDYWCNRIC (linker 4-12-16 via TATA) [BCY7996]
23 | 20 | Ac-CPF[dD]CM[hArg]NW[hSer]TPIWC (linker 1-5-15 via TATA) [BCY7908]
24 | 20 | Ac-CPF[dD]C[Gly(cPent)][hArg]NWSTPIWC (linker 1-5-15 via TATA) [BCY7915]
25 | 14.4 | Ac-CPF[dD]CM[hArg][124TriAz]WSTPIWC (linker 1-5-15 via TATA) [BCY7881]
26 | 12.5 | Ac-CPF[dD]CM[hArg][Ala(4-thiazolyl)]WSTPIWC (linker 1-5-15 via TATA) [BCY7879]
27 | 12 | Ac-CPF[dD]CMKNWSTPIWC (linker 1-5-15 via TATA) [BCY7819]
28 | 10 | Ac-CPF[dS]CM[hArg]NWSTPIWC (linker 1-5-15 via TATA) [BCY7907]
29 | 10 | Ac-CPF[dK]CM[hArg]NWSTPIWC (linker 1-5-15 via TATA) [BCY7820]
30 | 9.5 | Ac-CPF[dD]CM[hArg][2Thi]WSTPIWC (linker 1-5-15 via TATA) [BCY7877]
31 | 9.5 | Ac-CPF[dD]CM[hArg]NWSTPI[Trp(5-F)]C (linker 1-5-15 via TATA) [BCY7892]
32 | 9 | Ac-CPF[dD]CM[hArg]NWSTP[Ala(cPr)]WC (linker 1-5-15 via TATA) [BCY7912]
33 | 8 | Ac-CPF[dK](MeO‑dPEG12)CM[hArg]NWSTPIWC (linker 1-5-15 via TATA) [BCY8089]
34 | 8 | Ac-CPF[dQ]CM[hArg]NWSTPIWC (linker 1-5-15 via TATA) [BCY7904]
35 | 6 | Ac-CPF[dL]CM[hArg]NWSTPIWC (linker 1-5-15 via TATA) [BCY7906]
36 | 5.6 | Ac-CPF[dD]CM[hArg]NWSTP[Hyp]WC (linker 1-5-15 via TATA) [BCY8037]
37 | 5 | Ac-CPF[dD]CM[hArg]N[Trp(5-F)]STPIWC (linker 1-5-15 via TATA) [BCY7891]
38 | 4.5 | {Ac-βAla}-[Sar][Sar][Sar][Sar][Sar]CP[1Nal][dD]CM[hArg]DWSTPIWC (linker 6-10-20 via TATA) [BCY8123]
39 | 4.5 | Ac-CP[1Nal][dD]CL[hArg]DWSTPIWC (linker 1-5-15 via TATA) [BCY8211]
40 | 4 | {Ac-βAla}-[Sar][Sar][Sar][Sar][Sar]CP[1Nal][dD]CM[hArg]HWSTP[Hyp]WC (linker 6-10-20 via TATA) [BCY8121]
41 | 4 | Ac-CPF[dF]CM[hArg]NWSTPIWC (linker 1-5-15 via TATA) [BCY7902]
42 | 4 | Ac-CPF[dD][NMeC]M[hArg]NWSTPIWC (linker 1-5-15 via TATA) [BCY7973]
43 | 3.6 | Ac-CP[2Nal][dD]CM[hArg]NWSTPIWC (linker 1-5-15 via TATA) [BCY8031]
44 | 3.5 | Ac-CP[1Nal][dD]CM[hArg]NWSTP[Hyp]WC (linker 1-5-15 via TATA) [BCY8124]
45 | 3 | Ac-CP[1Nal][dR]CM[hArg]DWSTPIWC (linker 1-5-15 via TATA) [BCY8215]
46 | 3 | {Ac-βAla}-[Sar][Sar][Sar][Sar][Sar]CP[1Nal][dD]CM[hArg]NWSTP[Hyp]WC (linker 6-10-20 via TATA) [BCY8120]
47 | 2.5 | Ac-CP[1Nal][dD]CM[hArg]NWSTPIWC (linker 1-5-15 via TATA) [BCY8030]
48 | 2.4 | Ac-CP[1Nal][dD]CM[hArg]DWSTPIWC (linker 1-5-15 via TATA) [BCY8127]
